Patent publication US20230192833A1

Target: human VEGFC (Vascular endothelial growth factor C) (human) (UniProt P49767)
Assay: cell-based or functional assay

decrease in proliferation of cancer cells (MTT assay, A498, 786-O, MDA-MB231, 48 h): 40%
B1: 1E9 antibodies (monoclonal anti-VEGFC antibodies of the 1E9 hybridoma) (antibody, V domains shown)
VH: QAQLRQPGAELVKPGASVKLSCKASGYTFISYWMHWVKQRPGQGLEWIGEINPSNGRTNYNEKFKSKATLTVDRSSSTAYMQLSSLTSEDSAVYYCASTSLFYYAMNYWGQGTSVTVSS
VL: DVVMTQTPLSLTVSLGDQASISCRSSQSLVHSNGNTYLHWYLQKPGQSPKLLIYKVFNRLSGVPDRFSGSGSGTDFTLKISRVEAEDLGVYFCSQNTHVPWTFGGGTKLEIK
